According to paper PMC9482650, “Quantitative fragmentomics allow affinity mapping of interactomes” (Nature Communications, 2022):
Where a chain is given by its changes, count along the chain named.

T1: SNTA1, Q13424
T1 sequence (Q13424 82-180, limits assumed, looked up): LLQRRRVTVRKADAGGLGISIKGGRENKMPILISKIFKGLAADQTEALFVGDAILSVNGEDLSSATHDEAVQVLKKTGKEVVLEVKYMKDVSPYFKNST

T2: MPP2, Q14168
T2 sequence (Q14168 180-250, limits assumed, looked up): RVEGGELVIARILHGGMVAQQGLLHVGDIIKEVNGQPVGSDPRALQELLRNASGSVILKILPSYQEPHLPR

T3: MPP6, Q9NZW5
T3 sequence (Q9NZW5 125-219, limits assumed, looked up): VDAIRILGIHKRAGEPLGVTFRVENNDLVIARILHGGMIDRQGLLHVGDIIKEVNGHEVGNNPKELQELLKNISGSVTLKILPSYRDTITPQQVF

T4: PCLO, Q9Y6V0
T4 sequence (Q9Y6V0 4491-4600, limits assumed, looked up): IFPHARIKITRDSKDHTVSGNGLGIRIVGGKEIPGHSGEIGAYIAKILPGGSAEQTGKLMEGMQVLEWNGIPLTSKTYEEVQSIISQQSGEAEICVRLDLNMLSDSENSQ

T5: APBA2_2, Q99767
T5 sequence (Q99767 654-744, limits assumed, looked up): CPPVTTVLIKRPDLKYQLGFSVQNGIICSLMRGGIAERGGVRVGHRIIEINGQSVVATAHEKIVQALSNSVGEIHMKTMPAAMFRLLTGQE

T6: ARHGAP21, Q5T5U3
T6 sequence (Q5T5U3 45-169, limits assumed, looked up): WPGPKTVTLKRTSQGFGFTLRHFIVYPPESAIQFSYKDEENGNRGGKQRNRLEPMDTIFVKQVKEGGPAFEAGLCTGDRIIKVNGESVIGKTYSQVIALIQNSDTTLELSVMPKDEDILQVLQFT

T7: NHERF3_3, Q5T2W1
T7 sequence (Q5T2W1 238-333, limits assumed, looked up): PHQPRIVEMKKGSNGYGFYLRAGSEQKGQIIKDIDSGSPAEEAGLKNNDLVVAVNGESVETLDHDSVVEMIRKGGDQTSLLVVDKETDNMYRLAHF

T8: GRIP1_4, Q9Y3R0
T8 sequence (Q9Y3R0 467-571, limits assumed, looked up): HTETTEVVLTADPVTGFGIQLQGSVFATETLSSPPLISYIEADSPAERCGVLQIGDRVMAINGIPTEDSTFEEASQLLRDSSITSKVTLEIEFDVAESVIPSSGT

T9: APBA1_2, Q02410
T9 sequence (Q02410 742-832, limits assumed, looked up): T5 sequence (Q99767 654-744, limits assumed, looked up) with K10R, K15R, A59P, Q65H, A66I, S70A, F84Y, G89A


These binders were tested against TJP2_1, Q9UDY2 (assay: holdup assay). Settings: plain residues with an end cap or a label only (N-terminal biotin on a linker: ado-ado).
TJP2_1, Q9UDY2, sequence (Q9UDY2 24-128): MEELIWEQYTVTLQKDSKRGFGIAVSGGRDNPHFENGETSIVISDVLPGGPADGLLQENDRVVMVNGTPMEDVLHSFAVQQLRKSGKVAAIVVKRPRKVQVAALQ
Parameters: key: below the threshold = too weak to quantify, mostly under pKd 3.1 to 4

Binder | pKd
PAPGQHTTQI [STK16, O75716] | below the threshold
NASRTRITFV [MCM7, P33993] | 5.34

What follows are binders tested against DLG2_2, Q15700 (assay: holdup assay). Settings: plain residues with an end cap or a label only (N-terminal biotin on a linker: ado-ado).
DLG2_2, Q15700, sequence (Q15700 189-283): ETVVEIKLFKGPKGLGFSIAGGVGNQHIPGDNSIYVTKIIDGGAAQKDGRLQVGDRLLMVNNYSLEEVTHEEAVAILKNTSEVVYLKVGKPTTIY
Parameters: key: below the threshold = too weak to quantify, mostly under pKd 3.1 to 4

Binder | pKd
PAPGQHTTQI [STK16, O75716] | 3.79
NASRTRITFV [MCM7, P33993] | 4.73

These binders were tested against T1, SNTA1, Q13424 (assay: holdup assay). Settings: plain residues with an end cap or a label only (N-terminal biotin on a linker: ado-ado).
Parameters: key: below the threshold = too weak to quantify, mostly under pKd 3.1 to 4

Binder | pKd
PAPGQHTTQI [STK16, O75716] | below the threshold
NASRTRITFV [MCM7, P33993] | 4.97

The binders below were run against T2, MPP2, Q14168 (assay: holdup assay). Settings: plain residues with an end cap or a label only (N-terminal biotin on a linker: ado-ado).
Parameters: key: below the threshold = too weak to quantify, mostly under pKd 3.1 to 4

Binder | pKd
PAPGQHTTQI [STK16, O75716] | below the threshold
NASRTRITFV [MCM7, P33993] | below the threshold

These binders were tested against Inadl_2, Q8NI35 (assay: holdup assay). Settings: plain residues with an end cap or a label only (N-terminal biotin on a linker: ado-ado).
Inadl_2, Q8NI35, sequence (Q8NI35 238-335): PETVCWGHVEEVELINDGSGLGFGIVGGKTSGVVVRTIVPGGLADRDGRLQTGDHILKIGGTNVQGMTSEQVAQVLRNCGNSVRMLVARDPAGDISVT
Parameters: key: below the threshold = too weak to quantify, mostly under pKd 3.1 to 4

Binder | pKd
PAPGQHTTQI [STK16, O75716] | below the threshold
NASRTRITFV [MCM7, P33993] | 4.61

What follows are binders tested against DLG1_1, Q12959 (assay: holdup assay). Settings: plain residues with an end cap or a label only (N-terminal biotin on a linker: ado-ado).
Parameters: key: below the threshold = too weak to quantify, mostly under pKd 3.1 to 4

Binder | pKd
PAPGQHTTQI [STK16, O75716] | 3.56
NASRTRITFV [MCM7, P33993] | 4.83

Each binder was assayed against MAGI3_2, Q5TCQ9 (assay: holdup assay). Settings: plain residues with an end cap or a label only (N-terminal biotin on a linker: ado-ado).
MAGI3_2, Q5TCQ9, sequence (Q5TCQ9 398-503): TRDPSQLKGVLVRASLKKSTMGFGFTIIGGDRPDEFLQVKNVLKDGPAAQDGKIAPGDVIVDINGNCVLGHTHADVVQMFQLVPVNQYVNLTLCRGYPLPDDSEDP
Parameters: key: below the threshold = too weak to quantify, mostly under pKd 3.1 to 4

Binder | pKd
PAPGQHTTQI [STK16, O75716] | below the threshold
NASRTRITFV [MCM7, P33993] | 5.49

Each binder was assayed against MAGI2_6, Q86UL8 (assay: holdup assay). Settings: plain residues with an end cap or a label only (N-terminal biotin on a linker: ado-ado).
MAGI2_6, Q86UL8, sequence (Q86UL8 1141-1229): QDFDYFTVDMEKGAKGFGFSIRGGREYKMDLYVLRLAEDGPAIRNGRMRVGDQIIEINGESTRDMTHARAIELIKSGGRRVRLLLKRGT
Parameters: key: below the threshold = too weak to quantify, mostly under pKd 3.1 to 4

Binder | pKd
PAPGQHTTQI [STK16, O75716] | below the threshold
NASRTRITFV [MCM7, P33993] | 4.16

The binders below were run against T3, MPP6, Q9NZW5 (assay: holdup assay). Settings: plain residues with an end cap or a label only (N-terminal biotin on a linker: ado-ado).
Parameters: key: below the threshold = too weak to quantify, mostly under pKd 3.1 to 4

Binder | pKd
PAPGQHTTQI [STK16, O75716] | 3.57
NASRTRITFV [MCM7, P33993] | below the threshold

Each binder was assayed against T4, PCLO, Q9Y6V0 (assay: holdup assay). Settings: plain residues with an end cap or a label only (N-terminal biotin on a linker: ado-ado).
Parameters: key: below the threshold = too weak to quantify, mostly under pKd 3.1 to 4

Binder | pKd
PAPGQHTTQI [STK16, O75716] | below the threshold
NASRTRITFV [MCM7, P33993] | below the threshold

Each binder was assayed against MAGI2_4, Q86UL8 (assay: holdup assay). Settings: plain residues with an end cap or a label only (N-terminal biotin on a linker: ado-ado).
MAGI2_4, Q86UL8, sequence (Q86UL8 772-865): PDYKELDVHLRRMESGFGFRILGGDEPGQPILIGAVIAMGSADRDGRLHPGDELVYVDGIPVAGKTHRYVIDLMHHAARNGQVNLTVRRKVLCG
Parameters: key: below the threshold = too weak to quantify, mostly under pKd 3.1 to 4

Binder | pKd
PAPGQHTTQI [STK16, O75716] | 3.5
NASRTRITFV [MCM7, P33993] | 3.82

Each binder was assayed against GRIP2_3, Q9C0E4 (assay: holdup assay). Settings: plain residues with an end cap or a label only (N-terminal biotin on a linker: ado-ado).
GRIP2_3, Q9C0E4, sequence (Q9C0E4 238-339): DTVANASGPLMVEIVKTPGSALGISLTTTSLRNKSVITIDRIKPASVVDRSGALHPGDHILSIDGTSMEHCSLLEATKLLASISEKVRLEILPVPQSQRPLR
Parameters: key: below the threshold = too weak to quantify, mostly under pKd 3.1 to 4

Binder | pKd
PAPGQHTTQI [STK16, O75716] | below the threshold
NASRTRITFV [MCM7, P33993] | below the threshold

Each binder was assayed against LIMK2, P53671 (assay: holdup assay). Settings: plain residues with an end cap or a label only (N-terminal biotin on a linker: ado-ado).
LIMK2, P53671, sequence (P53671 143-248): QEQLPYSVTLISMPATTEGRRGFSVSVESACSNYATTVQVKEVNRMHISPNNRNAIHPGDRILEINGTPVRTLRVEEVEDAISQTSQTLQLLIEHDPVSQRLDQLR
Parameters: key: below the threshold = too weak to quantify, mostly under pKd 3.1 to 4

Binder | pKd
PAPGQHTTQI [STK16, O75716] | below the threshold
NASRTRITFV [MCM7, P33993] | below the threshold

What follows are binders tested against T5, APBA2_2, Q99767 (assay: holdup assay). Settings: plain residues with an end cap or a label only (N-terminal biotin on a linker: ado-ado).
Parameters: key: below the threshold = too weak to quantify, mostly under pKd 3.1 to 4

Binder | pKd
PAPGQHTTQI [STK16, O75716] | below the threshold
NASRTRITFV [MCM7, P33993] | below the threshold

Each binder was assayed against FRMPD4, Q14CM0 (assay: holdup assay). Settings: plain residues with an end cap or a label only (N-terminal biotin on a linker: ado-ado).
FRMPD4, Q14CM0, sequence (Q14CM0 67-160): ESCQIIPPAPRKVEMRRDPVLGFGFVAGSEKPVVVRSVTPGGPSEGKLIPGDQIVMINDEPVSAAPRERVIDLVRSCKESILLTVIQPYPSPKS
Parameters: key: below the threshold = too weak to quantify, mostly under pKd 3.1 to 4

Binder | pKd
PAPGQHTTQI [STK16, O75716] | below the threshold
NASRTRITFV [MCM7, P33993] | below the threshold

The binders below were run against T6, ARHGAP21, Q5T5U3 (assay: holdup assay). Settings: plain residues with an end cap or a label only (N-terminal biotin on a linker: ado-ado).
Parameters: key: below the threshold = too weak to quantify, mostly under pKd 3.1 to 4

Binder | pKd
PAPGQHTTQI [STK16, O75716] | below the threshold
NASRTRITFV [MCM7, P33993] | below the threshold

Each binder was assayed against GORASP2, Q9H8Y8 (assay: holdup assay). Settings: plain residues with an end cap or a label only (N-terminal biotin on a linker: ado-ado).
Parameters: key: below the threshold = too weak to quantify, mostly under pKd 3.1 to 4

Binder | pKd
PAPGQHTTQI [STK16, O75716] | 3.54
NASRTRITFV [MCM7, P33993] | 5.38

The binders below were run against IL16_4, Q14005 (assay: holdup assay). Settings: plain residues with an end cap or a label only (N-terminal biotin on a linker: ado-ado).
IL16_4, Q14005, sequence (Q14005 1229-1329): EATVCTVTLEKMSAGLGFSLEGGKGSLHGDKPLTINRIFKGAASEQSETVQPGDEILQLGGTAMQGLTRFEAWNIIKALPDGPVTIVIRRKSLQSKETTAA
Parameters: key: below the threshold = too weak to quantify, mostly under pKd 3.1 to 4

Binder | pKd
PAPGQHTTQI [STK16, O75716] | below the threshold
NASRTRITFV [MCM7, P33993] | 3.67

The binders below were run against DLG4_1, P78352 (assay: holdup assay). Settings: plain residues with an end cap or a label only (N-terminal biotin on a linker: ado-ado).
DLG4_1, P78352, sequence (P78352 62-152): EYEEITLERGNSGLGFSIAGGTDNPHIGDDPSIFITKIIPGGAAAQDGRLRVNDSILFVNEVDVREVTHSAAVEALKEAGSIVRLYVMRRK
Parameters: key: below the threshold = too weak to quantify, mostly under pKd 3.1 to 4

Binder | pKd
PAPGQHTTQI [STK16, O75716] | below the threshold
NASRTRITFV [MCM7, P33993] | 4.76

Each binder was assayed against ARHGEF12, Q9NZN5-2 (assay: holdup assay). Settings: plain residues with an end cap or a label only (N-terminal biotin on a linker: ado-ado).
ARHGEF12, Q9NZN5-2, sequence (Q9NZN5 other isoform, or with tags, fused parts or gaps): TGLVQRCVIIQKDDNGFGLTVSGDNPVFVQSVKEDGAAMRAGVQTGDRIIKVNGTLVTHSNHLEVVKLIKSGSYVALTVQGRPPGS
Parameters: key: below the threshold = too weak to quantify, mostly under pKd 3.1 to 4

Binder | pKd
PAPGQHTTQI [STK16, O75716] | 4.38
NASRTRITFV [MCM7, P33993] | 4.46

What follows are binders tested against NHERF2_2, Q15599 (assay: holdup assay). Settings: plain residues with an end cap or a label only (N-terminal biotin on a linker: ado-ado).
NHERF2_2, Q15599, sequence (Q15599 142-238): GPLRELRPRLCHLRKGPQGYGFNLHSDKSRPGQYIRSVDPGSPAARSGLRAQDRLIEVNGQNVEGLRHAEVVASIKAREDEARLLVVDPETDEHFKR
Parameters: key: below the threshold = too weak to quantify, mostly under pKd 3.1 to 4

Binder | pKd
PAPGQHTTQI [STK16, O75716] | 3.78
NASRTRITFV [MCM7, P33993] | 3.63

The binders below were run against T7, NHERF3_3, Q5T2W1 (assay: holdup assay). Settings: plain residues with an end cap or a label only (N-terminal biotin on a linker: ado-ado).
Parameters: key: below the threshold = too weak to quantify, mostly under pKd 3.1 to 4

Binder | pKd
PAPGQHTTQI [STK16, O75716] | below the threshold
NASRTRITFV [MCM7, P33993] | 3.53

These binders were tested against CASK, O14936 (assay: holdup assay). Settings: plain residues with an end cap or a label only (N-terminal biotin on a linker: ado-ado).
CASK, O14936, sequence (O14936 487-570): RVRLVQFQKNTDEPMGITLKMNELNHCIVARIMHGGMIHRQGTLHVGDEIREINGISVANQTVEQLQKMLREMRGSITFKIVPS
Parameters: key: below the threshold = too weak to quantify, mostly under pKd 3.1 to 4

Binder | pKd
PAPGQHTTQI [STK16, O75716] | below the threshold
NASRTRITFV [MCM7, P33993] | below the threshold

These binders were tested against T8, GRIP1_4, Q9Y3R0 (assay: holdup assay). Settings: plain residues with an end cap or a label only (N-terminal biotin on a linker: ado-ado).
Parameters: key: below the threshold = too weak to quantify, mostly under pKd 3.1 to 4

Binder | pKd
PAPGQHTTQI [STK16, O75716] | below the threshold
NASRTRITFV [MCM7, P33993] | below the threshold

The binders below were run against FRMPD2_1, Q68DX3 (assay: holdup assay). Settings: plain residues with an end cap or a label only (N-terminal biotin on a linker: ado-ado).
FRMPD2_1, Q68DX3, sequence (Q68DX3 770-861): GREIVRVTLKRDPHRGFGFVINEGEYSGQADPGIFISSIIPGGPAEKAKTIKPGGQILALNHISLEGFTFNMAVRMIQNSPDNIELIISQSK
Parameters: key: below the threshold = too weak to quantify, mostly under pKd 3.1 to 4

Binder | pKd
PAPGQHTTQI [STK16, O75716] | below the threshold
NASRTRITFV [MCM7, P33993] | below the threshold

Each binder was assayed against PDLIM1, O00151 (assay: holdup assay). Settings: plain residues with an end cap or a label only (N-terminal biotin on a linker: ado-ado).
PDLIM1, O00151, sequence (O00151 1-87): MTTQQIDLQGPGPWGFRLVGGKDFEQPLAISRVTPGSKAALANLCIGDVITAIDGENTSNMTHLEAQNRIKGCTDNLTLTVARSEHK
Parameters: key: below the threshold = too weak to quantify, mostly under pKd 3.1 to 4

Binder | pKd
PAPGQHTTQI [STK16, O75716] | below the threshold
NASRTRITFV [MCM7, P33993] | below the threshold

These binders were tested against GRID2IP_1, A4D2P6 (assay: holdup assay). Settings: plain residues with an end cap or a label only (N-terminal biotin on a linker: ado-ado).
GRID2IP_1, A4D2P6, sequence (A4D2P6 1-87): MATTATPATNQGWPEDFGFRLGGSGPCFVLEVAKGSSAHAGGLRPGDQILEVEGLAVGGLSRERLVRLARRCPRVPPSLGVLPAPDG
Parameters: key: below the threshold = too weak to quantify, mostly under pKd 3.1 to 4

Binder | pKd
PAPGQHTTQI [STK16, O75716] | below the threshold
NASRTRITFV [MCM7, P33993] | below the threshold

These binders were tested against T9, APBA1_2, Q02410 (assay: holdup assay). Settings: plain residues with an end cap or a label only (N-terminal biotin on a linker: ado-ado).
Parameters: key: below the threshold = too weak to quantify, mostly under pKd 3.1 to 4

Binder | pKd
PAPGQHTTQI [STK16, O75716] | below the threshold
NASRTRITFV [MCM7, P33993] | 4.71
